Data published in patent publication US20220119506A1 (NOVOBIND LIVESTOCK THERAPEUTICS, published 2022).

T1: PirA (Vibrio parahaemolyticus)
T1 construct: also called JHE-like toxin PirA-like; vp19
T1 chain: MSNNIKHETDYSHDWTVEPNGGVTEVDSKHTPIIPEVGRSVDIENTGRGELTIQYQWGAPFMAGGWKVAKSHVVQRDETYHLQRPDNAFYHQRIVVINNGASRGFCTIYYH

T2: PirB (Vibrio parahaemolyticus)
T2 construct: also called JHE-like toxin PirB-like
T2 chain: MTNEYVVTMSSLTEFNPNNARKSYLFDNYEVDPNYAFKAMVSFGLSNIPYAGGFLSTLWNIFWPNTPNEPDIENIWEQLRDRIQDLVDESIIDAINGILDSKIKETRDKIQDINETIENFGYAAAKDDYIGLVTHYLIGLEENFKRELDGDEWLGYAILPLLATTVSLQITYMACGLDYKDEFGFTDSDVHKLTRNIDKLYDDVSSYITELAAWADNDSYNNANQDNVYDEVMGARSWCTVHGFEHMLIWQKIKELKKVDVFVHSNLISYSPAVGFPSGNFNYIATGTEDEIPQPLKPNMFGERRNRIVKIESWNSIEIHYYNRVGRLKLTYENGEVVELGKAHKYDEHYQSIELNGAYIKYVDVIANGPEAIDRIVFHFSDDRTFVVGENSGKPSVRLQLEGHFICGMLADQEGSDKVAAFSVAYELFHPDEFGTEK


Target: T1, PirA
Test: phage ELISA, antigen-coated wells

Binder | binding above PBS-coated wells
NBX0401 (VHH, on phage in the phage ELISA) VHH: QVQLQQSGGGLVRAGGSLRLSCETSGRTFSSYTMGWFRQAPGKEREFVGTIDWWSSSSSYADSVKGRFTISRDNAKNTVYLQMNSLKPEDTAVYYCAASGKYGLAYSRRDYAYWGQGTQVTVSS | ≥ 50%
NBX0849 (VHH, on phage in the phage ELISA) VHH: QVQLQESGGGLVQAGGSLRLSCAASGRTFNRYAMGWFRQAPGKEREFVAAISWSGNTQYTDSVKGRFTISRDDAKNTVYLQMNSLKPEDTAVYYCALRIPASSSTTYYYADQYDYWGQGTQVTVSS | ≥ 50%
NBX0605 (VHH, on phage in the phage ELISA) VHH: QVQLQESGGGLVQPGGALRLSCAASGSFFSIYAMAWYRQAPGKQRELVAGITSGSETNYADSVKGRFTISRDNAKNTVYLQMNSLKLEDTAVYYCNRWAPLTRLDYWGQGTQVTVSS | ≥ 50%
NBX0607 (VHH, on phage in the phage ELISA) VHH: QVQLQESGGGLVQAGGSLRLSCAASGGTFSRLTMGWFRQAPGEEREFVAAVSWVAETTDYADSVKGRFSISRDNSKNTVYLQMNSLKPVDTAVYYCAAGPRDMIRSRNIRSYDSWGQGTQVTVSS | ≥ 50%
NBX0619 (VHH, on phage in the phage ELISA) VHH: QVQLQQSGGGLVQAGGSLRLFCAASGGTFSRLTMGWFRQAPGEEREFVAAVSWVAETTDYADSVKGRFSISRDNSKNTVYLQMNNLKPVDTAVYYCAAGPRDMIRSRNIRSYDSWGQGTQVTVSS | ≥ 50%
NBX0629 (VHH, on phage in the phage ELISA) VHH: QVQLQQSGGGLVQAGGSLRLSCAASGGTFSRLTIGWFRQAPGEERVFVAAVSWVAETTDYADSVKGRFSISRDNSKNTVYLQMNSLKPVDTAVYYCAAGPRDMIRSRNIRSYDSWGQGTQVTVSS | ≥ 50%
NBX0632 (VHH, on phage in the phage ELISA) VHH: QVQLQQSGGGLVQAGGSLRLSCAASGGTFSRLTMGWFRQAPGEEREFVAAVSWVAGTTDYADSVKGRFTISRDNSKNTVHLQMNSLKPVDTAVYYCAAGPRDMIRSRNIRSYDSWGQGTQVTVSS | ≥ 50%
NBX0402 (VHH, on phage in the phage ELISA) VHH: QVQLQQSGGSLVQAGGSLRLSCAASGLPFINYAMGWFRQAPGKDREIVAAIDWNGDSTYYAVSVKGRFTISRDNAKNTVTLQMNSLKPEDTAIYYCASHYQPYIRVSATRRFEADYWGQGTQVTVSS | ≥ 50%
NBX0403 (VHH, on phage in the phage ELISA) VHH: QVQLQQSGGSLVQAGGSLRLSCAASGLPFINYAMGWFRQAPGKDREIVAAIDWNGDSTYYAVSVKGRFTISRDNAKNTVTLQMNSLKPEDTAIYYCAADYQPYIRVSATRRFEADYWGQGTQVTVSS | ≥ 50%
NBX0616 (VHH, on phage in the phage ELISA) VHH: QVQLQESGGGLVQAGGSLRLSCATSGLTFSSYAMGWFRQAPGKEREFVATISWSGKSTRYSDSVKGRFTISRDNAKNTVYLQMNSLKPEDTAVYYCAADYQRLGLLRVGVAEYDYWGQGIQVTVSS | ≥ 50%

Target: T2, PirB
Test: phage ELISA, antigen-coated wells

Binder | binding above PBS-coated wells
NBX0405 (VHH, on phage in the phage ELISA) VHH: QVQLQESGGGLVQAGDSLRLSCATSGRTFSRYTMGWFRQTPGKEREFVAAISWSGTYYTDSVKGRFTISRDNAKNTVYLQMNSLKPEDTAVYYCVVGSRRLYYSSDINYWGQGTQVTVSS | ≥ 50%
NBX0640 (VHH, on phage in the phage ELISA) VHH: QVQLQESGGGLVQPGGSLRLSCAASGSIFSGNVMGWYRQVPGKQRDLVATITGGGITRYADSVKGRFTISRDNAKNTVYLQMNSLKPEDTAVYYCHYRRIMQQYWGQGTQVTVSS | ≥ 50%
NBX0638 (VHH, on phage in the phage ELISA) VHH: QVQLQESGGGLVQAGGSLRLSCAASGSIFSGNVMGWYRQVPGKQRDLVATITGGGITRYADSVKGRFTISRDNAKNTVYLQMNSLKPEDTAVYYCNYRRIMQQYWGKGTLVTVSS | ≥ 50%
NBX0643 (VHH, on phage in the phage ELISA) VHH: QVQLQESGGGLVQAGGSLRLSCEASGSIFSGNVMGWYRQVPGKQRDLVATMTGGGVTRYADSVKARFTISRDNAKNTVYLQMNSLKPEDTGVYYCHYRRIMQQYWGQGTQVTVSS | ≥ 50%
NBX0644 (VHH, on phage in the phage ELISA) VHH: QVQLQESGGGLVQAGGSLRLSCAASGSIFSGNVMGWYRQVPGKQRDLVATITGGGITRYADSVKGRFTISRDNAKNKVYLQMNGLKPEDTAVYFCFYRRIMQQYWGQGTQVTVSS | ≥ 50%
NBX0645 (VHH, on phage in the phage ELISA) VHH: QVQLQESGGGLVQAGGSLRLSCAASGSIFSGNVMGWYRQVPGKQRDLVATITGGGITHYADSVKGRFTISRDNAKNTVYLQMNSLKPEDTAVYYCLYRRIMQQYWGQGTQVTVSS | ≥ 50%
NBX0646 (VHH, on phage in the phage ELISA) VHH: QVQLQESGGGLVQAGGSLRLSCAASGSIFSGNVMGWYRQVPGNQRELVATITGGGVTRYADSVKARFTISRDNAKNTVYLQMNSLKPEDTAVYYCHYRRIMQQSWGQGTQVTVSS | ≥ 50%
NBX0647 (VHH, on phage in the phage ELISA) VHH: QVQLQESGGGSVPPGGSLRLSCAASGSIFSGNVMAWYRQVPGKQRDLVASMTGGGVTRYADSVIARFTISRDNVKNTVYLQMNSLKPEDTAVYYCHYRRIMQQYWGQGTQVTVSS | ≥ 50%
NBX0650 (VHH, on phage in the phage ELISA) VHH: QVQLQESGGGLVQAGGSLRLSCEASGSIFSGNVLGWYRQVPGKQRDLVATITGGGITRYADSVKGRFTISRDNAKNTVYLQMNALKPEDTAVYYCHYRRIMQQYWGQGTQVTVSS | ≥ 50%
NBX0639 (VHH, on phage in the phage ELISA) VHH: QVQLQESGGGLVQAGGSLRLSCAASGIVFSSIVMAWYRQAPGKQRELVASITNGGLVNSGDSVKGRFTISRDNAKNTVYLQMNSLKPEDTAVYYCNARRIMTSYWGQGTQVTVSS | ≥ 50%
NBX0641 (VHH, on phage in the phage ELISA) VHH: QVQLQESGGGLVQAGGSLRLSCAASGSISNSYVMGWYRQAPGKQRELVATITSGGLTNYAQSLKGRFTISRDNAKNTVYLQMTSLEPEDTAVYYCNARVIFTTYWGQGTQVTVST | ≥ 50%
NBX0642 (VHH, on phage in the phage ELISA) VHH: QVQLQQSGGGLVQAGGSLRLSCVASTVTFSRYAMGWFRQAPGKEREVVAGISGSGHRTYYGDFVKGRFTISRDNAKKTVYLQMNNLKPEDTAVYYCAGDLVAKFDSAYRVSYDSWGQGTQVTVSS | ≥ 50%
NBX0648 (VHH, on phage in the phage ELISA) VHH: QVQLQESGGGLVQAGGSLRLSCEASGIIFSSNVMGWYRQAPGKQRELVASRTSGGLTNYADSAKGRFTISRDNAKNTVYLQMNSLKPEDTAVYYCNARRLFTNYWGQGTQVTVSS | ≥ 50%
NBX0649 (VHH, on phage in the phage ELISA) VHH: QVQLQQSGGGLVQPGGSLTLSCAASGSIASGNVLGWYRQAPGKQRELVATITSGGLTHYKDSVKGRFTISRDNAKNMVFLQMNSLKPEDTAVYYCNYRRLATGYWGQGTQVTVSS | ≥ 50%
NBX0828 (VHH, on phage in the phage ELISA) VHH: QVQLQESGGGAVQAGGSLRLSCAGPRSIFSGNAMAWYRQVPGKQRETVATVNTGGLTWYGDFVKGRFTISRDDAKNTLLLQMDSLKPEDTAVYYCNAVLVRARGMWGQGTQVTVSS | ≥ 50%
NBX0834 (VHH, on phage in the phage ELISA) VHH: QVQLQESGGGSVQAGGSLRLSCAASESMFRDHNMGWYRQAPGKQRELVATISRGGLINYGDSVRGRFTISRDNAKNTIYLQMNSLKVEDTAVYYCNARRLLTTVWGQGTQVTVSP | ≥ 50%
NBX0836 (VHH, on phage in the phage ELISA) VHH: QVQLQQSGGGLVQPGGSLRLSCSASGIRLGSYVMGYYRQAPGKQRELVATVTSGGTTNRADSVKGRFTISRDNAKNAVYLQMNSLKPEDTAVYYCNARILFTNYWGQGTQVTVSS | ≥ 50%
NBX0840 (VHH, on phage in the phage ELISA) VHH: QVQLQQSGGGLVQAGGSLRLSCAASGSIRSSNVMGWYRQTPGKQRELVATMTAGGLTNYADSVKGRFTISRDNAKNTVYLQMNSLKPEDTAVYYCHYRRIFNVYWGQGTQVTVSS | ≥ 50%
NBX0841 (VHH, on phage in the phage ELISA) VHH: QVQLQESGGGLVQAGGSLRLSCAASARTFIYKMGWFRQAPGKERDFVASIMWSVGNNYYYTDSAKGRFTISRDIAKNTMYLQMDSLEPEDTGEYYCAAATTSTQWRYWGQGTQVTVSS | ≥ 50%
NBX0844 (VHH, on phage in the phage ELISA) VHH: QVQLQESGGGLAQTGDSLRLSCAASGRMFSGFVMGWYRQNPGKQRELVATITNGGLTHYGDSVKGRFTISRDNAKNTVYLQMNSLKSEDSAVYYCNARRLFTNYWGQGTQVTVSP | ≥ 50%
